Results on 1 molecule are retold here after patent publication US20210380722A1, “COMPOSITIONS AND METHODS FOR THE TREATMENT OF MAJOR DEPRESSIVE DISORDER” (Snake River Bioscience, Inc., priority 2019, published 2021).

Test [1] concerns mice stressed with glucocorticosterone or chronic unpredictable environmental stress (CUS). The test can be described thus: i.v. treatment of stressed mice with anti-ceramide antibodies or neutral ceramidase; behavior and neurogenesis. The format is in vivo. The following applies: mice stressed 6 days with glucocorticosterone or CUS.
The subject of test [2] is healthy wildtype mice injected with blood plasma from stressed mice. The test can be described thus: blood plasma from stressed mice treated in vitro, injected i.v. into healthy wildtype mice. Format: in vivo. Particulars: plasma from stressed mice incubated in vitro with agent, 125 μL i.v. into non-stressed mice, 24 h later; FIGS. 3a, 3b. The method, then:
Corticosterone (Sigma, St. Louis, Mo.) was administered to mice via the drinking water at 120 mg/L for 7 days. In the chronic unpredictable stress model (CUS), the mice were challenged with unpredictable environmental stress for 8 days, i.e., a reversal of the light/dark cycle, 3 h of 45° tilting of the cage twice each week, shaking at 125 rpm, food deprivation for 14 h, predator sounds (15 min) or wet cages (1 h) with two forms of stress per day in a randomized (unpredictable) order. Blood was collected from the heart into heparin-coated needles and tubes immediately after sacrifice by cervical dislocation. Blood plasma was centrifuged at 3500 rpm for 5 min at 4° C. in an Eppendorf centrifuge. […]
(§1) Behavioral testing was performed between 3:00 p.m. and 6:00 p.m. under diffuse indirect room light. […] The time was recorded during which the mice explored a new environment before they began eating. […] The time that the mouse spent in each of the separate compartments was recorded. […] In the coat state test, the appearance of the coat (groomed vs unkempt coat) was scored on the head, neck, back, and ventrum with either a zero for normal status or a 1 for unkempt status. […] After 24 h the mice were again placed in a water-filled cylinder for 6 min, and the time of mobility or immobility during the last 4 min of the second trial was recorded. […]

Test [3] relates to untreated wildtype mice injected with exosomes purified from stressed mice. The test can be described thus: exosomes from stressed mice incubated ex vivo, injected i.v. into untreated wildtype mice. The format is in vivo. The following applies: exosomes from stressed mice incubated 60 min ex vivo with agent, within 24 h, FIGS. 3c, 3d. The method, then:
To achieve in vitro neutralization of consumption of ceramide, 125 μL blood plasma or exosomes (purified from 150 μL blood plasma as described below) were incubated with 0.5 μg purified IgM anti-ceramide antibodies, 0.5 μg control IgM or 1 μg recombinant neutral ceramidase.
To isolate exosomes from blood plasma, samples were centrifuged at 16,500×g for 20 min. The supernatant was then passed through a 0.22-μm filter and exosomes were harvested by centrifugation twice at 100,000×g for 70 min. The final pellet was resuspended in phosphate-buffered saline (PBS). Exosomes were pelleted by centrifugation at 100,000×g for 70 min, the supernatant was discarded, and the exosomes were resuspended and injected i.v. into healthy mice. […]
as §1

Test [4] deals with healthy mice injected with exosomes from patients with MDD. Briefly: exosomes from blood plasma of MDD patients treated in vitro, injected into healthy mice. Format: in vivo. The following applies: human exosomes preincubated with agent, 24 h after injection, FIGS. 5a, 5b. The method, then: Depressive patients (7 women, 10 men) aged >60 years (mean age=71.1 years, SD=4.7) were recruited at the Psychiatric University Hospital, Basel, Switzerland. […] For comparison, 9 healthy individuals without history of depression (mean age=70.9 years, SD=5.3) were included in the study. The study was approved by the “Ethikkommission der Nordwest—und Zentralschweiz” (EKNZ; No. 2015-148) and all participants provided written informed consent. […]
as §1
Exosomes were isolated from 150 μL blood plasma from patients with major depressive disorder (MDD), and from healthy control subjects. […] Behavior (FIG. 5a) and neurogenesis (FIG. 5b) were determined to measure the occurrence of MDD in mice after injection of human exosomes from depressed patients. […]

The conditions of test [5]: Asah2, R&D; cited from earlier work.

B1: recombinant neutral ceramidase: recombinant neutral ceramidase (Asah2, R&D, 3,000 pmol/min/μg), consumes plasma ceramide (protein, UniProt Q9JHE3 1-756, looked up)
Neutral ceramidase: MAKRTFSTLEAFLIFLLVIMTVITVALLTLLFVTSGTIENHKDSGNHWFSTTLGSTTTQPPPITQTPNFPSFRNFSGYYIGVGRADCTGQVSDINLMGYGKNGQNARGLLTRLFSRAFILADPDGSNRMAFVSVELCMISQRLRLEVLKRLESKYGSLYRRDNVILSAIHTHSGPAGFFQYTLYILASEGFSNRTFQYIVSGIMKSIDIAHTNLKPGKIFINKGNVANVQINRSPSSYLLNPQSERARYSSNTDKEMLVLKLVDLNGEDLGLISWFAIHPVSMNNSNHFVNSDNMGYAAYLFEQEKNKGYLPGQGPFVAGFASSNLGDVSPNILGPHCVNTGESCDNDKSTCPNGGPSMCMASGPGQDMFESTHIIGRIIYQKAKELYASASQEVTGPVLAAHQWVNMTDVSVQLNATHTVKTCKPALGYSFAAGTIDGVSGLNITQGTTEGDPFWDTLRDQLLGKPSEEIVECQKPKPILLHSGELTIPHPWQPDIVDVQIVTVGSLAIAAIPGELTTMSGRRFREAIKKEFALYGMKDMTVVIAGLSNVYTHYITTYEEYQAQRYEAASTIYGPHTLSAYIQLFRDLAKAIATDTVANMSSGPEPPFFKNLIASLIPNIADRAPIGKHFGDVLQPAKPEYRVGEVVEVIFVGANPKNSAENQTHQTFLTVEKYEDSVADWQIMYNDASWETRFYWHKGILGLSNATIYWHIPDTAYPGIYRIRYFGHNRKQELLKPAVILAFEGISSPFEVVTT
Consider B1, for which the “neurogenesis in the hippocampus (BrdU-positive cells)” value in test [1] (24 h after first i.v. injection, FIG. 2b) is “normalized neurogenesis”. Besides, the “behavioral signs of major depression (light/dark box, latency to feed, time in center, splash test, forced swim test, coat test)” value in test [1] (i.v. injection 24 h and 12 h before analysis, FIG. 2a) is on record as “abrogated behavioral signs of major depression in stressed mice”. Moreover, the “development of MDD (behavioral changes and neurogenesis in the hippocampus)” value in test [2] was “prevented the development of MDD”. Also, the “development of MDD (behavior parameters and neuronal proliferation)” value in test [3] was “prevented development of MDD”. The “depressed behavior and reduced neurogenesis induced by exosomes from depressed patients” value in test [4] is “prevented their effects on mice”. The “activity of recombinant neutral ceramidase” value in test [5] is reported as 3,000 pmol/min/μg.
